Measured values as given in publication PMC13000311 (Nature Communications, 2026).

B1: human flotillin-2 (as in the purified complex used for cryo-EM) (natural protein, UniProt Q14254 1-428, looked up)
chain: MGNCHTVGPNEALVVSGGCCGSDYKQYVFGGWAWAWWCISDTQRISLEIMTLQPRCEDVETAEGVALTVTGVAQVKIMTEKELLAVACEQFLGKNVQDIKNVVLQTLEGHLRSILGTLTVEQIYQDRDQFAKLVREVAAPDVGRMGIEILSFTIKDVYDKVDYLSSLGKTQTAVVQRDADIGVAEAERDAGIREAECKKEMLDVKFMADTKIADSKRAFELQKSAFSEEVNIKTAEAQLAYELQGAREQQKIRQEEIEIEVVQRKKQIAVEAQEILRTDKELIATVRRPAEAEAHRIQQIAEGEKVKQVLLAQAEAEKIRKIGEAEAAVIEAMGKAEAERMKLKAEAYQKYGDAAKMALVLEALPQIAAKIAAPLTKVDEIVVLSGDNSKVTSEVNRLLAELPASVHALTGVDLSKIPLIKKATGVQV
B2: human flotillin-1 with a C-terminal 3× FLAG tag (natural protein, UniProt O75955 1-427, looked up)
chain: MFFTCGPNEAMVVSGFCRSPPVMVAGGRVFVLPCIQQIQRISLNTLTLNVKSEKVYTRHGVPISVTGIAQVKIQGQNKEMLAAACQMFLGKTEAEIAHIALETLEGHQRAIMAHMTVEEIYKDRQKFSEQVFKVASSDLVNMGISVVSYTLKDIHDDQDYLHSLGKARTAQVQKDARIGEAEAKRDAGIREAKAKQEKVSAQYLSEIEMAKAQRDYELKKAAYDIEVNTRRAQADLAYQLQVAKTKQQIEEQRVQVQVVERAQQVAVQEQEIARREKELEARVRKPAEAERYKLERLAEAEKSQLIMQAEAEAASVRMRGEAEAFAIGARARAEAEQMAKKAEAFQLYQEAAQLDMLLEKLPQVAEEISGPLTSANKITLVSSGSGTMGAAKVTGEVLDILTRLPESVERLTGVSISQVNHKPLRTA

What was measured:
[1] = target: B2; experiment: cryo-EM structure
cryo-EM structure = target: the molecule itself; experiment: cryo-EM structure

Row | Binder | stoichiometry N [1] | binding result (cryo-EM structure)
1 | B1 | 44 protomers (22 flotillin-1 and 22 flotillin-2) | –
2 | B2 | – | binds
